Experimental data: article PMC3715890 (2013)

Target: HIF-1alpha PAS-B (235-350) (Homo sapiens, UniProt Q16665)
Experiment: ITC

HIF-1alpha PAS-B (235-350), sequence (Q16665 235-350): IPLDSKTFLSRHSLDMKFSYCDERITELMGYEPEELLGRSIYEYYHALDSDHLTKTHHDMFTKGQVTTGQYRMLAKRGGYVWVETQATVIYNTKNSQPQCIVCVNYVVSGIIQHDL

cyclo(C(S‑S‑Tat)LLFVY) [P1 (Tat-cyclo-CLLFVY)] gave a Kd of 124 nM.
